Measurements from patent US20230002480A1.

What was measured:
Test in all cases: cell-based or functional assay
[1] = target: HIV-1 Env of pseudovirus 6240_08_TA5_4622 (HIV-1)
[2] = target: HIV-1 Env of pseudovirus 231966.c02 (HIV-1)
[3] = target: HIV-1 Env of pseudovirus THRO4156.18 (HIV-1)
[4] = target: HIV-1 Env of pseudovirus Q461.e2 (HIV-1)
[5] = target: HIV-1 Env of pseudovirus HIV-0013095-2.11 (HIV-1)
[6] = target: HIV-1 Env of pseudovirus Ce1172_H1 (HIV-1)
[7] = target: HIV-1 Env of pseudovirus 231965.c01 (HIV-1)
[8] = target: HIV-1 Env of pseudovirus Ce2010_F5 (HIV-1)
[9] = target: HIV-1 Env of pseudovirus 191955_A11 (HIV-1)
[10] = target: HIV-1 Env of pseudovirus 6041.v3.c23 (HIV-1)
[11] = target: HIV-1 Env of pseudovirus TRO.11 (HIV-1)
[12] = target: HIV-1 Env of pseudovirus 1012_11_TC21_3257 (HIV-1)
[13] = target: HIV-1 Env of pseudovirus P1981_C5_3 (HIV-1)
[14] = target: HIV-1 Env of pseudovirus Du156.12 (HIV-1)
[15] = target: HIV-1 Env of pseudovirus BJOX028000.10.3 (HIV-1)
[16] = target: HIV-1 Env of pseudovirus T250-4 (HIV-1)
[17] = target: HIV-1 Env of pseudovirus HIV-16845-2.22 (HIV-1)
[18] = target: HIV-1 Env of pseudovirus SC422661.8 (HIV-1)
[19] = target: HIV-1 Env of pseudovirus CNE53 (HIV-1)
[20] = target: HIV-1 Env of pseudovirus ZM247v1(Rev-) (HIV-1)
[21] = target: HIV-1 Env of pseudovirus 3016.v5.c45 (HIV-1)
[22] = target: HIV-1 Env of pseudovirus ZM109F.PB4 (HIV-1)
[23] = target: HIV-1 Env of pseudovirus CNE19 (HIV-1)
[24] = target: HIV-1 Env of pseudovirus T255-34 (HIV-1)
[25] = target: HIV-1 Env of pseudovirus CNE52 (HIV-1)
[26] = target: HIV-1 Env of pseudovirus 3365.v2.c2 (HIV-1)
[27] = target: HIV-1 Env of pseudovirus X2088_c9 (HIV-1)
[28] = target: HIV-1 Env of pseudovirus CNE17 (HIV-1)
[29] = target: HIV-1 Env of pseudovirus AC10.0.29 (HIV-1)
[30] = target: HIV-1 Env of pseudovirus 6480.v4.c25 (HIV-1)
[31] = target: HIV-1 Env of pseudovirus 211-9 (HIV-1)
[32] = target: HIV-1 Env of pseudovirus C2101.c01 (HIV-1)
[33] = target: HIV-1 Env of pseudovirus WEAU_d15_410_787 (HIV-1)
[34] = target: HIV-1 Env of pseudovirus CNE21 (HIV-1)
[35] = target: HIV-1 Env of pseudovirus BJOX025000.01.1 (HIV-1)
[36] = target: HIV-1 Env of pseudovirus Ce1176_A3 (HIV-1)

3BNC117 (antibody) was tested, and the neutralization IC50 [1] was 0.33 µg/mL, the neutralization IC80 [1] was 1.17 µg/mL and the IC50, titer in TZM.bl cells [2] was 0.29 µg/mL. It also gave an IC80, titer in TZM.bl cells [2] of 2.37 µg/mL, a neutralization IC50 [3] of 1.76 µg/mL and a neutralization IC80 [3] of 10.1 µg/mL. The neutralization IC50 [4] was 0.03 µg/mL, the neutralization IC80 [4] was 0.09 µg/mL and the neutralization IC50 [5] was 0.33 µg/mL. For the same substance, the neutralization IC80 [5] was 2.53 µg/mL, the neutralization IC50 [6] was > 50 µg/mL and the neutralization IC80 [6] was > 50 µg/mL. The IC50, titer in TZM.bl cells [7] was 0.05 µg/mL, the IC80, titer in TZM.bl cells [7] was 0.22 µg/mL and the neutralization IC50 [8] was 0.05 µg/mL. The neutralization IC80 [8] was 0.21 µg/mL, the neutralization IC50 [9] was > 50 µg/mL and the neutralization IC80 [9] was > 50 µg/mL. The IC50, titer in TZM.bl cells [10] was 0.01 µg/mL, the IC80, titer in TZM.bl cells [10] was 0.07 µg/mL and the neutralization IC50 [11] was < 0.09 µg/mL. The neutralization IC80 [11] was < 0.09 µg/mL, the neutralization IC50 [12] was 0.02 µg/mL and the neutralization IC80 [12] was 0.07 µg/mL. For the same substance, the IC50, titer in TZM.bl cells [13] was 0.74 µg/mL, the IC80, titer in TZM.bl cells [13] was 3.62 µg/mL and the neutralization IC50 [14] was 0.02 µg/mL. It also gave a neutralization IC80 [14] of 0.08 µg/mL, an IC50, titer in TZM.bl cells [15] of 0.01 µg/mL and an IC80, titer in TZM.bl cells [15] of 0.05 µg/mL. For the same substance, the IC50, titer in TZM.bl cells [16] was > 15 µg/mL, the IC80, titer in TZM.bl cells [16] was > 15 µg/mL and the neutralization IC50 [17] was 27.5 µg/mL. The neutralization IC80 [17] was > 50 µg/mL, the neutralization IC50 [18] was 0.02 µg/mL and the neutralization IC80 [18] was 0.08 µg/mL. The neutralization IC50 [19] was 0.08 µg/mL, the neutralization IC80 [19] was 0.99 µg/mL and the neutralization IC50 [20] was > 50 µg/mL. For the same substance, the neutralization IC80 [20] was > 50 µg/mL, the IC50, titer in TZM.bl cells [21] was 1.38 µg/mL and the IC80, titer in TZM.bl cells [21] was > 30 µg/mL. It also gave a neutralization IC50 [22] of 0.14 µg/mL, a neutralization IC80 [22] of 0.88 µg/mL and a neutralization IC50 [23] of 0.02 µg/mL. It also gave a neutralization IC80 [23] of 0.08 µg/mL, an IC50, titer in TZM.bl cells [24] of 0.02 µg/mL and an IC80, titer in TZM.bl cells [24] of 0.14 µg/mL. It also gave a neutralization IC50 [25] of 0.02 µg/mL, a neutralization IC80 [25] of 0.06 µg/mL and a neutralization IC50 [26] of 0.03 µg/mL. The neutralization IC80 [26] was 0.1 µg/mL, the IC50, titer in TZM.bl cells [27] was > 50 µg/mL and the IC80, titer in TZM.bl cells [27] was > 50 µg/mL. It also gave a neutralization IC50 [28] of 5.76 µg/mL, a neutralization IC80 [28] of 43 µg/mL and a neutralization IC50 [29] of 13.8 µg/mL. The neutralization IC80 [29] was > 50 µg/mL, the IC50, titer in TZM.bl cells [30] was 0.01 µg/mL and the IC80, titer in TZM.bl cells [30] was 0.04 µg/mL. For the same substance, the IC50, titer in TZM.bl cells [31] was 0.35 µg/mL, the IC80, titer in TZM.bl cells [31] was 1.28 µg/mL and the IC50, titer in TZM.bl cells [32] was 0.05 µg/mL. The IC80, titer in TZM.bl cells [32] was 0.31 µg/mL, the neutralization IC50 [33] was 0.05 µg/mL and the neutralization IC80 [33] was 0.19 µg/mL. The neutralization IC50 [34] was 45.4 µg/mL, the neutralization IC80 [34] was > 50 µg/mL and the IC50, titer in TZM.bl cells [35] was 0.05 µg/mL. It also gave an IC80, titer in TZM.bl cells [35] of 0.2 µg/mL, a neutralization IC50 [36] of 0.22 µg/mL and a neutralization IC80 [36] of 0.75 µg/mL.
